Measurements: US20040123344A1, “Novel gene encoding an f-box protein which regulates leaf longevity in arabidopsis thaliana and mutant gene thereof” (priority 2000, published 2004)

Columns and labels:
GST-ASK1 fusion protein = molecular target: T1, GST-ASK1 fusion protein (Arabidopsis thaliana, UniProt Q39255); assay: In vitro binding assay with GST-ASK1 fusion protein; details: 35S-labeled in vitro translation product; glutathione beads; GST as negative control
T1 construct: made in house; host or cells: Escherichia coli BL21(DE3) pLysS
T1 sequence (Q39255 1-160): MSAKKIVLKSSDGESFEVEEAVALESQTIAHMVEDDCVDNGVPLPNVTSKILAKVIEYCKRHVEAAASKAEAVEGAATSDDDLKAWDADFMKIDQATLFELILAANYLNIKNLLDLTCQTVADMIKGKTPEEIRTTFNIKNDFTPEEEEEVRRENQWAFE
Excerpt: In order to examine that ORE9 protein or derivatives thereof directly bind with ASK1, a GST-ASK1 fusion protein and a ^35S-labeled ORE9 protein produced by in vitro translation were subjected to in vitro binding assay. To obtain a glutathione S-transferase (GST) protein and a GST-ASK1 fusion protein, a vector pGEX (APBiotech, Co.) and a vector pGEX-ASK1 were constructed, which express the above proteins, respectively. Artificial sequences represented by SEQ ID NO: 14 and SEQ ID NO: 15 were used as PCR primers to amplify a gene encoding the ASK1 fragment. The resulting PCR product was digested with EcoRI and NcoI restriction enzymes, and inserted into the restriction enzyme sites of the pGEX vector. Escherichia coli BL21(DE3) pLysS was transformed with the resulting two vectors, and GST and GST-ASK1 fusion proteins were expressed. The GST and GST-ASK1 fusion proteins were purified by chromatography with glutathione-Sepharose 4B beads. The purified proteins was subjected to electrophoresis with SDS-polyacryamide gets, dyed with Coomassie blue, and measured for their amount. GST and GST-ASK1 fusion proteins of the same amount were added to glutathione beads, which had been previously washed with 10-fold volume of B buffer (20 mM […], pH 7.6, 150 mM sodium chloride, 10% glycerol, 0.5% NP-40, 1 mM DTT) three times. Then, the resulting proteins were adsorbed 4° C. for one hour using a rotating mixer. The provided beads were washed with 1 ml B buffer three times, and then stored in a state where the ratio of slurries relative to B buffer is 50%.
Meanwhile, a radioactivity-labeled ORE9 (1-693), the mutant type ore9 and ORE9 derivatives (1-327 and 50-693) were prepared using the in vitro transcription/translation system (Promega, USA) and [^35S]-methionine (DuPont NEN, USA). The proteins were quantitatively analyzed with SDS-PAGE and BAS radioanalytic imaging system (Japan). Then, the respective ^35S-labeled translation products of the same amount were mixed with 60 μl GST-adsorbed beads or GST-ASK1 fusion protein-absorbed beads, contained in 1 ml GB buffer (final concentration: 20 mM Tris-HCl, pH 7.5, 0.15% NP-40, 150 mM NaCl, 1 mM EDTA). The resulting beads were cultured in a rotating mixer at 4° C. for two hours, and then washed with 1 ml GB buffer four times. The washed beads were added with 30 μl of 2×SDS sample solutions, boiled for three minutes and then isolated with SDS-PAGE. The resulting gels were dried to dryness, and then exposed to X-ray film.

ASK2(1-172) = molecular target: T2, ASK2(1-172) (Arabidopsis thaliana, UniProt Q9FHW7); assay: Yeast two-hybrid assay with ASK2; type: cell-based; details: HF7c yeast
T2 construct: the plasmid pGAD424-ASK2(1-172)[4] was constructed by inserting a BamHI/PstI fragment of pGTE-ASK2(1-172) into pGAD424; expressed in transfected cells; host or cells: Saccharomyces cerevisiae HF7c
T2 sequence (Q9FHW7 1-171): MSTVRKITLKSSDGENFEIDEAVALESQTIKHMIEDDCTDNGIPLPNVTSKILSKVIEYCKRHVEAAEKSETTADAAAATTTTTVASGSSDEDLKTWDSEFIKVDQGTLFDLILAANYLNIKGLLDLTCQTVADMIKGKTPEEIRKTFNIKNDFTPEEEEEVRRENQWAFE
Excerpt: As expression vectors of expressing GAL4 DNA binding domain (GAL4-BD) and ORE9 fusion protein, plasmids pGBT9-ORE9 (1-49) and pGBT9-ORE9 (50-693) were constructed. The plasmid pGBT9-ORE9 expresses a fragment of ORE9 containing N-terminal 1-49th amino acids corresponding to an F-box region of ORE9, and the plasmid pGBT9-ORE9 (50-693) expresses a fragment of ORE9 containing 50-693th amino acids from which the F-box region was removed.
First, the gene encoding the ORE9 (1-49) fragment was amplified by PCR using a primer represented by SEQ ID NO: 10 and SEQ ID NO: 11, and then inserted into BamHI and PstI restriction enzyme sites of pGBT9 (Clontech, USA) containing a 4-BD gene and a tryptophan auxotrophic selection marker gene (TRP1), thereby constructing the plasmid pGBT9-ORE9 (1-49). Similarly, the plasmid pGBT 9-ORE9 (50-693) was constructed, which expresses an ORE9 (50-693) fragment and a GAL4-BD fusion protein. In this case, oligonucletides represented by SEQ ID NO: 12 and SEQ ID NO: 13 were used as PCR primers to amplify the gene encoding the ORE9 (50-693) fragment. […]

B1: ore9: mutant protein with early translation termination, 8 LRRs, SEQ ID NO: 3 (protein, listed as Arabidopsis thaliana)
chain: MASTTLSDLPDVILSTISSLVSDSRARNSLSLVSHKFLALERSTRSHLTIRGNARDLSLVPDCFRSISHLDLSFLSPWGHTLLASLPIDHQNLLALRLKFCFPFVESLNVYTRSPSSLELLLPQWPRIRHIKLLRWHQRASQIPTGGDFVPIFEHCGGFLESLDLSNFYHWTEDLPPVLLRYADVAARLTRLDLLTASFTEGYKSSEIVSITKSCPNLKTFRVACTFDPRYFEFVGDETLSAVATSSPKLTLLHMVDTASLANPRAIPGTEAGDSAVTAGTLIEVFSGLPNLEELVLDVGKDVKHSGVALEALNSKCKKLRVLKLG
- binding (co-precipitation) with GST-ASK1 (GST-ASK1 fusion protein): co-precipitated with the GST-ASK1 fusion protein
- binding with ASK2 in yeast two-hybrid assay (ASK2(1-172)): didn't bind to each other
